Experimental data from the supplement of paper PMC9112550, “Optimization of the antimicrobial peptide Bac7 by deep mutational scanning” (BMC Biology, 2022).

These sequences were tested on Escherichia coli TOP10 (assay: shrunken log2 fold change of peptide-encoding DNA abundance (4.5 h post-induction vs induction); higher = less antimicrobial activity (less host growth inhibition)). Conditions: time post-induction: 4.5 h; library: site-saturation at positions 5, 18, 19, 20.
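Note: peptides expressed intracellularly from a pBAD plasmid library in pooled LB shake-flask culture, induced with 0.3% L-arabinose, DNA abundance read by NGS, three biological replicates, DESeq2 with apeglm shrinkage.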

Sequence	shrunken log2 fold change
RRIRNRPPRLPRPRPRPHFQPRP	0.0313
RRIRTRPPRLPRPRPRPIAHPRP	0.00363
RRIRARPPRLPRPRPRPEFHPRP	0.847
RRIRQRPPRLPRPRPRPSGHPRP	-0.0673
RRIRKRPPRLPRPRPRPLVEPRP	0.734
RRIRFRPPRLPRPRPRPGSTPRP	-0.183
RRIRGRPPRLPRPRPRPHQGPRP	-0.0236
RRIRFRPPRLPRPRPRPEMPPRP	-0.142
RRIRIRPPRLPRPRPRPSFKPRP	-0.494
RRIRRRPPRLPRPRPRPNMNPRP	-0.463
RRIRYRPPRLPRPRPRPECVPRP	-0.282
RRIRPRPPRLPRPRPRPFLFPRP	-0.204
RRIRDRPPRLPRPRPRPNMGPRP	0.102
RRIRIRPPRLPRPRPRPCIDPRP	-0.0398
RRIRRRPPRLPRPRPRPERHPRP	0.549
RRIRKRPPRLPRPRPRPVHYPRP	-0.0126
RRIRVRPPRLPRPRPRPGYQPRP	-0.00841
RRIRYRPPRLPRPRPRPRTGPRP	-0.0225
RRIRYRPPRLPRPRPRPQEKPRP	-0.0798
RRIRNRPPRLPRPRPRPSYRPRP	-0.102
RRIRWRPPRLPRPRPRPITTPRP	0.0992
RRIRQRPPRLPRPRPRPKSVPRP	-0.0026
RRIRARPPRLPRPRPRPPEPPRP	0.686
RRIRHRPPRLPRPRPRPKQGPRP	-0.0386
RRIRCRPPRLPRPRPRPMAKPRP	-0.0415

Sequence	shrunken log2 fold change
RRIRGRPPRLPRPRPRPGSFPRP	0.286
RRIRRRPPRLPRPRPRPNITPRP	-0.128
RRIRTRPPRLPRPRPRPIYLPRP	-0.224
RRIRHRPPRLPRPRPRPQNCPRP	0.0145
RRIRSRPPRLPRPRPRPWKRPRP	-0.000813
RRIRYRPPRLPRPRPRPHPYPRP	-0.449
RRIRDRPPRLPRPRPRPCYTPRP	-0.295
RRIRLRPPRLPRPRPRPNEWPRP	-0.227
RRIRCRPPRLPRPRPRPQQTPRP	-0.00158
RRIRGRPPRLPRPRPRPGVRPRP	0.659
RRIRHRPPRLPRPRPRPPFDPRP	-0.178
RRIRCRPPRLPRPRPRPRWEPRP	0.342
RRIRMRPPRLPRPRPRPNHTPRP	-0.213
RRIRNRPPRLPRPRPRPAFTPRP	-0.176
RRIRDRPPRLPRPRPRPTLAPRP	0.933
RRIRRRPPRLPRPRPRPPVPPRP	0.753
RRIRPRPPRLPRPRPRPMRDPRP	0.467
RRIRIRPPRLPRPRPRPGWCPRP	-0.082
RRIRHRPPRLPRPRPRPTKIPRP	-0.316
RRIRVRPPRLPRPRPRPVWGPRP	1.8
RRIRVRPPRLPRPRPRPNWNPRP	-0.318
RRIRTRPPRLPRPRPRPNEEPRP	-0.0204
RRIRCRPPRLPRPRPRPRNKPRP	-0.102
RRIRKRPPRLPRPRPRPGHRPRP	0.118
RRIRVRPPRLPRPRPRPWMPPRP	-0.199

Sequence	shrunken log2 fold change
RRIRQRPPRLPRPRPRPIFGPRP	-0.00652
RRIRCRPPRLPRPRPRPSGSPRP	-0.125
RRIRWRPPRLPRPRPRPGLRPRP	0.53
RRIRLRPPRLPRPRPRPIPPPRP	0.0351
RRIRRRPPRLPRPRPRPITEPRP	0.0622
RRIRYRPPRLPRPRPRPFHGPRP	0.0221
RRIRYRPPRLPRPRPRPCKQPRP	0.00515
RRIRTRPPRLPRPRPRPTECPRP	-0.0493
RRIRRRPPRLPRPRPRPYTSPRP	-0.313
RRIRARPPRLPRPRPRPGSVPRP	0.301
RRIRLRPPRLPRPRPRPVPYPRP	-0.2
RRIRTRPPRLPRPRPRPSLNPRP	-0.555
RRIRCRPPRLPRPRPRPDMPPRP	-0.253
RRIRARPPRLPRPRPRPFQGPRP	0.0242
RRIRERPPRLPRPRPRPAQVPRP	-0.149
RRIRVRPPRLPRPRPRPVQTPRP	0.0297
RRIRQRPPRLPRPRPRPGHDPRP	-0.112
RRIRRRPPRLPRPRPRPPKDPRP	0.472
RRIRCRPPRLPRPRPRPYKPPRP	-0.705
RRIRQRPPRLPRPRPRPILLPRP	-0.0814
RRIRWRPPRLPRPRPRPRQQPRP	-0.0369
RRIRNRPPRLPRPRPRPHHIPRP	-0.282
RRIRQRPPRLPRPRPRPRINPRP	-0.184
RRIRARPPRLPRPRPRPQQTPRP	0.141
RRIRWRPPRLPRPRPRPEADPRP	1.5

Sequence	shrunken log2 fold change
RRIRSRPPRLPRPRPRPEGVPRP	0.552
RRIRRRPPRLPRPRPRPAISPRP	-0.0296
RRIRHRPPRLPRPRPRPELVPRP	0.177
RRIRRRPPRLPRPRPRPREGPRP	1.33
RRIRARPPRLPRPRPRPQWFPRP	0.0925
RRIRHRPPRLPRPRPRPPLDPRP	0.372
RRIRQRPPRLPRPRPRPAMWPRP	0.579
RRIRGRPPRLPRPRPRPWWKPRP	0.0639
RRIRERPPRLPRPRPRPCYDPRP	-1.93
RRIRVRPPRLPRPRPRPEGFPRP	0.0396
RRIRGRPPRLPRPRPRPTPLPRP	0.747
RRIRRRPPRLPRPRPRPFQYPRP	-0.0414
RRIRYRPPRLPRPRPRPGIAPRP	-0.269
RRIRYRPPRLPRPRPRPPKQPRP	-0.0678
RRIRTRPPRLPRPRPRPKKFPRP	-0.403
RRIRARPPRLPRPRPRPQTMPRP	0.108
RRIRARPPRLPRPRPRPTVQPRP	0.549
RRIRVRPPRLPRPRPRPFWAPRP	0.182
RRIRYRPPRLPRPRPRPYSFPRP	-0.106
RRIRIRPPRLPRPRPRPNPHPRP	-0.581
RRIRARPPRLPRPRPRPLPSPRP	0.353
RRIRRRPPRLPRPRPRPSFAPRP	0.492
RRIRMRPPRLPRPRPRPSCEPRP	0.541
RRIRVRPPRLPRPRPRPTAFPRP	0.0786
RRIRNRPPRLPRPRPRPNNNPRP	-0.867

Sequence	shrunken log2 fold change
RRIRARPPRLPRPRPRPYHGPRP	-1.67
RRIRLRPPRLPRPRPRPWGNPRP	-0.106
RRIRRRPPRLPRPRPRPQEMPRP	0.51
RRIRPRPPRLPRPRPRPGRVPRP	0.318
RRIRLRPPRLPRPRPRPMCEPRP	-0.0027
RRIRWRPPRLPRPRPRPQELPRP	-0.0075
RRIRFRPPRLPRPRPRPMWHPRP	0.0814
RRIRCRPPRLPRPRPRPMYGPRP	-0.675
RRIRTRPPRLPRPRPRPDLFPRP	-0.0784
RRIRFRPPRLPRPRPRPVHSPRP	-0.126
RRIRDRPPRLPRPRPRPGPDPRP	0.217
RRIRIRPPRLPRPRPRPSLVPRP	0.0916
RRIRWRPPRLPRPRPRPTWWPRP	0.79
RRIRWRPPRLPRPRPRPHALPRP	-0.118
RRIRKRPPRLPRPRPRPEPVPRP	0.0885
RRIRERPPRLPRPRPRPTLTPRP	-0.0194
RRIRLRPPRLPRPRPRPGMAPRP	0.145
RRIRWRPPRLPRPRPRPFYIPRP	-0.632
RRIRMRPPRLPRPRPRPLSGPRP	0.815
RRIRDRPPRLPRPRPRPYPMPRP	-0.348
RRIRIRPPRLPRPRPRPTPPPRP	0.464
RRIRPRPPRLPRPRPRPVYDPRP	-0.711
RRIRKRPPRLPRPRPRPSCDPRP	0.141
RRIRHRPPRLPRPRPRPFPCPRP	-0.0311
RRIRWRPPRLPRPRPRPWQVPRP	0.172
